# Measured values reported in patent US5616562A, “Methods and compositions using substance P to promote wound healing” (priority 1994, dated 1997).
# Where a SMILES comes first, the peptide text is derived from it. [ ]: non-standard residue; d: D form.
# B1: enkephalinase: an enzyme that cleaves SP between amino acid residues 6-7, 7-8, and 9-10 (protein, UniProt P08473 2-750, looked up)
# Neprilysin: GKSESQMDITDINTPKPKKKQRWTPLEISLSVLVLLLTIIAVTMIALYATYDDGICKSSDCIKSAARLIQNMDATTEPCTDFFKYACGGWLKRNVIPETSSRYGNFDILRDELEVVLKDVLQEPKTEDIVAVQKAKALYRSCINESAIDSRGGEPLLKLLPDIYGWPVATENWEQKYGASWTAEKAIAQLNSKYGKKVLINLFVGTDDKNSVNHVIHIDQPRLGLPSRDYYECTGIYKEACTAYVDFMISVARLIRQEERLPIDENQLALEMNKVMELEKEIANATAKPEDRNDPMLLYNKMTLAQIQNNFSLEINGKPFSWLNFTNEIMSTVNISITNEEDVVVYAPEYLTKLKPILTKYSARDLQNLMSWRFIMDLVSSLSRTYKESRNAFRKALYGTTSETATWRRCANYVNGNMENAVGRLYVEAAFAGESKHVVEDLIAQIREVFIQTLDDLTWMDAETKKRAEEKALAIKERIGYPDDIVSNDNKLNNEYLELNYKEDEYFENIIQNLKFSQSKQLKKLREKVDKDEWISGAAVVNAFYSSGRNQIVFPAGILQPPFFSAQQSNSLNYGGIGMVIGHEITHGFDDNGRNFNKDGDLVDWWTQQSASNFKEQSQCMVYQYGNFSWDLAGGQHLNGINTLGENIADNGGLGQAYRAYQNYIKKNGEEKLLPGLDLNHKQLFFLNFAQVWCGTYRPEYAVNSIKTDVHSPGNFRIIGTLQNSAEFSEAFHCRKNSYMNPEKKCRVW
# How the values were obtained:
# [1] = test system: persistent non-septic corneal epithelial defects; experiment: Open-label clinical trial of topical SP in canine patients with chronic non-septic corneal epithelial defects; type: in vivo, dog; conditions: 500 μ/ml SP topical, 8 times daily
# Description: This was a non-controlled open-label clinical trial conducted on canine patients seen in a specialty referral service for chronic, non-septic corneal epithelial defects. Criteria for inclusion included:
# 1. Absence of an identifiable underlying cause of the epithelial defect (lid abnormalities, decreased tear production etc.) on complete ophthalmic examination.
# 2. Persistence of the defect for at least 3 weeks.
# 3. Unresponsive to traditional therapy (topical broad spectrum antibiotics,some cases had received topical hyper-osmotic therapy, and 5 dogs had not healed after placement of a therapeutic soft contact bandage lens).
# After obtaining informed consent from the owners, the dogs were taken into the hospital, an Elizabethan collar was placed (to keep the dog from rubbing its eye) and two drops of 500 μ/ml SP were instilled into the affected eye. The dogs were closely observed for any irritant effect of the drops. The dogs were then treated with one drop 8 times daily for duration of the trial.
# [2] = test system: corneal epithelium; experiment: Corneal re-epithelialization after debridement in rabbits given systemic capsaicin; type: in vivo, rabbit
# Description: In order to investigate the effect of SP treatment on corneal epithelial cell growth, capsaicin (50 mg/kg) was injected subcutaneously into young rabbits on five consecutive days in order to deplete, lower, or block the release of SP in their corneas. Lidocain was injected subcutaneously into the injection site 10 minutes prior to the capsaicin injection. Three weeks after the last injection, the rabbits were anesthetized (ketamine/rompun), topical anesthetic applied to the cornea and the corneal epithelium of both eyes debrided to the limbal margin of clear cornea. The corneas were stained 2× daily with fluorescein and photographed using a cobalt filter to monitor re-epithelialization. Resultant photographs were projected onto a digitizing board and the surface area of ulceration determined. […] Clinically, the capsaicin treated rabbits differed from the control rabbits only in their impaired ability to re-epithelialize the denuded stroma.
# [3] = test system: corneal epithelium; experiment: Morphological examination of adherence of regenerated corneal epithelium; type: in vivo, rabbit; conditions: after healing of the cornea; masked specimens; systemic capsaicin, or topical enkephalinase in normal rabbits
# Description: For both capsaicin-treated rabbits and those treated with topical enkephalinase, regenerated epithelial layers could be easily rubbed off as a sheet of cells after healing of the cornea. This was not found in the control rabbits. Specimens from the various treatment groups were masked and morphologically examined to determine the nature of epithelial adherence. […] Thus, it appears that SP and other neuropeptides contribute to the attachment of epithelial cells during wound healing. Such contribution may take the form of elaboration of extracellular matrices (e.g., fibronectin) as well as development of cellular attachment mechanism, which activity would be in addition to their mitogenic activity in promoting cellular proliferation.
# [4] = test system: epithelial cells; experiment: SP analogs and fragment: stimulation of DNA synthesis / cell growth; type: cell-based
# Description: Several SP analogs were also tested for their ability to stimulate DNA synthesis. An SP analog where norleucine is substituted for methionine at the C-terminus was tested (Nle-SP). Norleucine is a structural analog of methionine where the sulfur is replaced with a CH2 group.
# [5] = test system: corneal epithelium; experiment: Corneal re-epithelialization after debridement in non-capsaicin rabbits treated with topical enkephalinase; type: in vivo, rabbit
# Description: To evaluate the effect of SP depletion using another model, the corneal epithelium was removed from non-capsaicin treated rabbits as described above. Enkephalinase (which breaks down SP) was administered 4× daily to one eye of each bilaterally wounded rabbit. The fellow eye received vehicle only 4× daily. […] FIG. 4 underestimates the time course of epithelial healing of both capsaicin treated rabbits and enkephalinase treated corneas for many of these corneas had not re-epithelialized at the termination of the experiments. In 12 rabbits, the enkephalinase treated eye always took longer to heal. In FIG. 5, typical plots for one rabbit (the other 11 rabbits gave essentially the same results) of wound area with time are presented. The solid line represents the enkephalinase-treated eye while the broken line represents the control without enkephalinase. In each case the enkephalinase treated eye and the vehicle treated eye appeared to heal at the same rate for the first 80 to 90 hours. […] The initial healing rate was probably due to migration of pre-existing cells onto the peripheral wound. After 80 to 90 hours synthesis of new cells is required in order to completely cover the wound. […]
# [6] = test system: epithelial cells; experiment: Effect of enkephalinase on the ability of SP and insulin to stimulate DNA synthesis; type: cell-based
# Description: Substance P (SP) was tested for its ability to stimulate cell growth in epithelial cells from both cornea and lens that were arrested in the G1 /Go phase of the cell cycle in serum free media. […] See, FIG. 1 for corneal and FIG. 2 for lens epithelial cells. To test whether this effect was due to SP, 1 μg/ml of enkephalinase (an enzyme that cleaves SP between amino acid residues 6-7, 7-8, and 9-10) was added.
# In the previous experiment, the enkephalinase was added to the cells at the same time as the SP.
molecule,measurement,setting,value
"CSCC[C@H](NC(=O)[C@H](CC(C)C)NC(=O)CNC(=O)[C@H](Cc1ccccc1)NC(=O)[C@H](Cc1ccccc1)NC(=O)[C@H](CCC(N)=O)NC(=O)[C@H](CCC(N)=O)NC(=O)[C@@H]1CCCN1C(=O)[C@H](CCCCN)NC(=O)[C@@H]1CCCN1C(=O)[C@@H](N)CCCN=C(N)N)C(N)=O [SP, Substance P]",complications,[1],No complications were observed
COc1cc(CNC(=O)CCCC/C=C/C(C)C)ccc1O [capsaicin],time to re-epithelialize the denuded cornea,"[2]; capsaicin 50 mg/kg subcutaneously on five consecutive days, wounding three weeks later, vs 160 hours in non-capsaicin rabbits (FIG. 4)",460 h
same,clinical evidence of impaired lacrimation or other secondary phenomenon,[2]; capsaicin treated rabbits,No clinical evidence
same,adherence of regenerated corneal epithelium,[3],poorly adhered
CC(C)C[C@H](NC(=O)[C@H](CC(C)C)NC(=O)[C@@H](Cc1c[nH]c2ccccc12)NC(=O)[C@H](Cc1ccccc1)NC(=O)[C@@H](Cc1c[nH]c2ccccc12)NC(=O)[C@H](CCC(N)=O)NC(=O)[C@H](CCC(N)=O)NC(=O)[C@@H]1CCCN1C(=O)[C@H](CCCCN)NC(=O)[C@@H]1CCCN1C(=O)[C@H](N)CCCNC(=N)N)C(N)=O [spantide] (H-[dR]PKPQQ[dW]F[dW]LL-NH2),promotion of cellular growth,[4],stimulate epithelial cell growth
fragment of substance P including only amino acids 5-11: fragment of substance P including only amino acids 5-11 (GlnPhePheGlyLeuMet),promotion of cellular growth,[4],active
B1,adherence of regenerated corneal epithelium,[3],poorly adhered
same,healing rate (wound area with time),[5]; after the first 80 to 90 hours (FIG. 5),slow dramatically
same,re-epithelialization compared to fellow eye treated with vehicle,"[5]; enkephalinase 4× daily to one eye, 12 rabbits (FIG. 4)",markedly impair re-epithelialization
same,effect of enkephalinase on SP-stimulated DNA synthesis,[6]; 1 μg/ml enkephalinase added at the same time as SP (FIG. 3),destroyed all activity of SP by itself
same,effect of enkephalinase on insulin-stimulated DNA synthesis,"[6]; 1 μg/ml enkephalinase, insulin alone (FIG. 3)",did not affect the activity of insulin alone
same,effect of enkephalinase pretreatment on the SP effect,"[6]; cells pretreated 1 to 3 hours, enkephalinase then removed, especially in the presence of insulin",enhancement of the SP effect
same,harmful effects on epithelial cells,[6]; enkephalinase by itself,no harmful effects
